We go through 1 molecule from patent US8624002B2, “Prostaglandin E2 binding proteins and uses thereof” (AbbVie, Inc., priority 2008, dated 2014).

One may read the IC50 as the concentration that inhibits the measured activity by half. What is called EC50 is the concentration that produces a half-maximal response. Low readings indicate greater potency, high ones weaker potency.

Data set [1] has as its system PGE2 induced Ca++ influx in HEK293 Gα16 cells stably transfected with human EP4 receptor. The data set can be described thus: EP4 bioassay: PGE2 induced Ca++ flux (FLIPR). To be noted: PGE2 25 pm; read-out: IC50 (pM) @ PGE2 25 pm Cellular Potency in EP4 assay. In kind it is cell-based. The method, then:
The ability of anti-PGE2 antibody to inhibit cellular response of PGE2 in vitro was determined in a Ca^++ flux assay in HEK293 Gα16 cells (Abbott Bioresearch Center, Worcester, Mass.) stably transfected with human EP4 receptor. In brief, an expression plasmid encoding one of the four human PGE2 receptors, EP4, and an expression plasmid encoding Gα16, were co-transfected into human embryonic kidney cell line 293 cells (ATCC# CRL1573, Manassas, Va.). The stable clones co-expressing both human EP4 and Gα16 protein were selected using standard methods (Joseph Sambrook and David W. Russell. Molecular Cloning: A Laboratory Manual Publisher. Published by Cold Spring Harbor Laboratory Press, 2001) and used for the EP4 bioassay. The HEK293 Gα16 cells were plated in black/clear poly-D-lysine plates (Corning #3667, Corning, N.Y.) and incubated with a Ca^++-sensitive dye (Molecular Devices, Sunnyvale, Calif.) for 90 minutes. Stock PGE2 (in 200 proof ethanol) was diluted with FLIPR buffer [containing 1×HBSS (Invitrogen Carlsbad, Calif.), 20 mM HEPES (Invitrogen Carlsbad, Calif.), 0.1% BSA (Sigma, St. Louis, Mo.) and 2.5 mM Probenecid (Sigma, St. Louis, Mo.)]. Anti-PGE2 antibodies or isotype matched control antibodies were also pre-diluted in FLIPR buffer. 25 μl of PGE2 or pre-incubated PGE2/antibody mixture was added to the wells pre-plated with cells. The dose response of PGE2 was determined on a serial titration of PGE2 and using FLIPR1 or Tetra (Molecular Devices, Sunnyvale, Calif.) and EC50 was determined using GraphPad Prism 5 (GraphPad Software, La Jolla, Calif.). […] Ca^++ flux was monitored using FLIPR1 and data was analyzed using GraphPad Prism 5 (GraphPad Software, La Jolla, Calif.).

Data set [2] is described as follows: Biotin-PGE2 ELISA (PGE2-biotinamide binding to captured IgG). A general note: An ELISA detects its analyte on a solid surface through an enzyme-linked reagent.
The nature of data set [3]: Capillary zone electrophoresis. In kind it is physicochemical. Particulars: running buffer pH 5.5; compared with Hu2B5.2, Hu2B5.4, Hu2B5.6, Hu2B5.8. An excerpt: Capillary zone electrophoresis is a capillary electrophoresis method in which the capillary is filled with buffer and the separation mechanism is based on differences in electrophoretic mobility of the analyte through the buffer. The electrophoretic mobility of a molecule is related to the charge-to-size ratio. A Beckman-Coulter ProteomeLab PA 800 (Beckman Coulter, Fullerton, Calif.) was used for the CZE analysis. A neutral capillary (eCAP neutral, 56 cm total length, 50 μm I. D. Beckman-Coulter, P/N 477441, Fullerton, Calif.) was used. The method used a 30.2 cm capillary with a detection window 20.2 cm from the sample introduction inlet. The running buffer was 100 mM EACA (6-Aminocaproic acid, Sigma A7824-100 G, St. Louis, Mo.) with 0.1% MC (from 1% Methylcellulose solution, Convergent Bioscience, cat# 101876, Toronto, ON, Canada), pH 5.5.

B1: Hu2B5.5: humanized 2B5-8.0; VH SEQ ID NO 68, VL SEQ ID NO 69 (antibody, V domains shown)
VH: EVQLVQSGAEVKKPGASVKVSCKASGYTFTKYWLGWVRQAPGQGLEWMGDIYPGYDYTHYNEKFKDRVTLTTDTSTSTAYMELRSLRSDDTAVYYCARSDGSSTYWGQGTLVTVSS
VL: DVVMTQTPLSLPVTPGEPASISCTSSQNIVHSNGNTYLEWYLQKPGQSPQLLIYKVSNRFSGVPDRFSGSGSGTDFTLKISRVEAEDVGVYYCFQVSHVPYTFGGGTKVEIKR
Turning to B1, in data set [1], the IC50 came out at 47 pM. The EC50 in data set [2] stood at 37 pM. Also, the “migration in capillary zone electrophoresis” value in data set [3] is recorded as “migrated more basic”.
